According to patent publication US20240228562A1, “NOVEL LIPOCALIN MUTEINS SPECIFIC FOR CONNECTIVE TISSUE GROWTH FACTOR (CTGF)” (PIERIS PHARMACEUTICALS GMBH, priority 2021, published 2024):

T1: huCYR61 (Homo sapiens, UniProt O00622)
T1 sequence (O00622 25-381): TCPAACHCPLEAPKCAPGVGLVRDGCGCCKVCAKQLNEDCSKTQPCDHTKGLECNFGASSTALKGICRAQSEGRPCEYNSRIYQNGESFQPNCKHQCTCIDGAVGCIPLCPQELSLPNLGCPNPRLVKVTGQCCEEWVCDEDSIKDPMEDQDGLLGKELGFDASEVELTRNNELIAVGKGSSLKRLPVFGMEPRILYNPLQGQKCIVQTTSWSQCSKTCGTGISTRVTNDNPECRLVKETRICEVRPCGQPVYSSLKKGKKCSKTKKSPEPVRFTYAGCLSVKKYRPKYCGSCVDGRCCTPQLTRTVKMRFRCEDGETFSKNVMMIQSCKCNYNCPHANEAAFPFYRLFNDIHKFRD

T2: huNOV (Homo sapiens, UniProt P48745)
T2 sequence (P48745 32-357): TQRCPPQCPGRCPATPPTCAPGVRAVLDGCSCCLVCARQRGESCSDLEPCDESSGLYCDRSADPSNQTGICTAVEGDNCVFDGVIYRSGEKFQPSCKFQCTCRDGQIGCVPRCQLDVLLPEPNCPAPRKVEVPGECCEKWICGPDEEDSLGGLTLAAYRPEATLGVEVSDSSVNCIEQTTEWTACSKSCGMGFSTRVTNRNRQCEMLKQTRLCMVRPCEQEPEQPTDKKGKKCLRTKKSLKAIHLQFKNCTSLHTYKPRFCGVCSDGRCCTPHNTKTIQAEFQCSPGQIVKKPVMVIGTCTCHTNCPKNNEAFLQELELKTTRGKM

T3: huWISP-2 (Homo sapiens, UniProt O76076)
T3 sequence (O76076 24-250): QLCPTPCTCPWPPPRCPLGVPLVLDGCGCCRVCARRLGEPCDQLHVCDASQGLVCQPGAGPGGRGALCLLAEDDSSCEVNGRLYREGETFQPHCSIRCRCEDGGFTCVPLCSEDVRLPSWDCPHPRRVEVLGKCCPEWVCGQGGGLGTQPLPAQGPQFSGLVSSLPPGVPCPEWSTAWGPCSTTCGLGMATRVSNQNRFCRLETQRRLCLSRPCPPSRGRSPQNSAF

T4: Rat CTGF (Rattus norvegicus, UniProt Q9R1E9)
T4 construct: purchased R&D Systems
T4 sequence (Q9R1E9 25-347): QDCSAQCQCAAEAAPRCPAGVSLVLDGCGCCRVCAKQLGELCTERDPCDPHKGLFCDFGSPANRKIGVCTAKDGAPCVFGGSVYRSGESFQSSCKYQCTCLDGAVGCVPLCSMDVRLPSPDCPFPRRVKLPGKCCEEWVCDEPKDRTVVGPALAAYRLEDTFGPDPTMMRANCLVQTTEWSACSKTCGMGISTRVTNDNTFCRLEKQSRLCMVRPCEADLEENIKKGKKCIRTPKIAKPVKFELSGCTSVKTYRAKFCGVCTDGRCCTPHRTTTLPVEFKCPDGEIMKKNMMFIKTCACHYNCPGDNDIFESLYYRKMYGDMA


Tests used:
[1] = molecular target: T1, huCYR61; experiment: Specificity ELISA (CCN proteins), huCYR61; assay type: binding; conditions: coated 1 μg/ml; assessed when human CTGF signal approached saturation
Description: (§1) Binding of muteins to closely related proteins of CTGF was tested by an ELISA assay. In detail, a 384-well plate suitable for fluorescence measurements (Greiner FLUOTRAC™ 600, black flat bottom, high-binding) was coated with 20 μl of human CTGF or the other members of the CCN protein family at a concentration of 1 μg/ml in PBS over night at 4° C. After washing with PBS with 0.05% Tween 20, wells were blocked with 100 μl blocking buffer containing 0.1% Tween 20 and 2% BSA (PBS-T/BSA) for 1 h at room temperature. 20 μl of serially diluted muteins starting at 1000 nM were incubated in PBS-T/BSA for 1 h at room temperature (RT).
(§2) The residual supernatants were discarded and 20 μl HRP-labeled anti-NGAL or anti-Strep-Tag antibody was added at a predetermined optimal concentration in PBS-T/BSA and incubated for 1 h at RT. After washing, 20 μl fluorogenic HRP substrate (QuantaBlu, Thermo) was added to each well, and the reaction was allowed to proceed for 2 to 60 minutes. The fluorescence intensity of every well on the plate was read using a fluorescence microplate reader (Tecan). When the signal for human CTGF approached saturation, the cross reactivity to the other proteins was assessed.

[2] = molecular target: T2, huNOV; experiment: Specificity ELISA (CCN proteins), huNOV; assay type: binding; conditions: coated 1 μg/ml; assessed when human CTGF signal approached saturation
Description: as §1, §2

[3] = molecular target: T3, huWISP-2; experiment: Specificity ELISA (CCN proteins), huWISP-2; assay type: binding; conditions: coated 1 μg/ml; assessed when human CTGF signal approached saturation
Description: as §1, §2

[4] = molecular target: T4, Rat CTGF; experiment: SPR binding kinetics and affinity, rat CTGF; conditions: 25° C., 1:1 binding model
Summary of the method: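 Targets either amine-coupled to CM5 chip (300–1100 RU; Fc-tagged human, untagged rat/murine) or Fc-captured via anti-human IgG; muteins injected 180 s contact, 900–3600 s dissociation, 30 μL/min, 25° C. Double-referenced sensorgrams fit to 1:1 model giving kon, koff and KD.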

Molecule	ELISA binding to huCYR61 [1]	ELISA binding to huNOV [2]	ELISA binding to huWISP-2 [3]	Kd [4] [nM]	Rat CTGF koff [4] [s⁻¹]	Rat CTGF kon [4] [M⁻¹ s⁻¹]
SEQ ID NO: 23: optimized CTGF-binding hNGAL lipocalin mutein (protein, lipocalin mutein) QDSTSDLIPAPPLSKVPLQQNFQDNQFQGKWYVVGVAGNAILRPDKQPAKMFATIYELKEDKSYDVTSVRFEAKSCKYTIKTFVPGSQPGEFTSGQIKSAPGQTSTLVRVVSTNYNQHAMVFFKHVSQNREIFVITLYGRTKELTSELKENFIRFSKSLGLPENHIVFPVPIDQCIDG	No binding	No binding	No binding			
SEQ ID NO: 9: parent CTGF-binding hNGAL lipocalin mutein (protein, lipocalin mutein) QDSTSDLIPAPPLSKVPLQQNFQDNQFHGKWYVVGLAGNKILRIDKQPAKMFATIYELKEDKSYDVTSVRFEARSCSYTIKTFVPGSQPGEFTAGNIKSAPGQTSTLVRVVSTNYNQHAMVFFKHVSQNRETFVITLYGRTKELTSELKENFIRFSKSLGLPENHIVFPVPIDQCIDG	No binding	No binding	No binding	16	0.00169	105000
SEQ ID NO: 15: optimized CTGF-binding hNGAL lipocalin mutein (protein, lipocalin mutein) QDSTSDLIPAPPLSKVPLQQNFQDNQFQGKWYVVGLAGNAILREDKQPAKMFATIYELKEDKSYDVTSVRFEAKSCKYTIKTFVPGSQPGEFTAGYIKSAPGQTSTLVRVVSTNYNQHAMVFFKHVTQNREIFVITLYGRTKELTSELKENFIRFSKSLGLPENHIVFPVPIDQCIDG	No binding	No binding	No binding		0.000114	120000
SEQ ID NO: 25: parent CTGF-binding hNGAL lipocalin mutein (protein, lipocalin mutein) QDSTSDLIPAPPLSKVPLQQNFQDNQFHGKWYVVGMAGNFRLREDKDPSKMGATIYELKEDKSYNVTQVQFDDKKCLYVIETFVPGSQPGEFTLGAIKSFPGFTSQLVRVVSTNYNQHAMVFFKKVYQNREVFWITLYGRTKELTSELKENFIRFSKSLGLPENHIVFPVPIDQCIDG	No binding	No binding	No binding	27.7	0.00129	46500
SEQ ID NO: 7: parent CTGF-binding hNGAL lipocalin mutein (protein, lipocalin mutein) QDSTSDLIPAPPLSKVPLQQNFQDNQFHGKWYVVGLAGNYGLRTDKRPSKMFATIYELKEDKSYDVTSVRFEQERCHYTIRTFVPGSQPGEFTTGSIKSRPGQTSSLVRVVSTNYNQHAMVFFKSVIQNREYFAITLYGRTKELTSELKENFIRFSKSLGLPENHIVFPVPIDQCIDG	No binding	No binding	No binding	62.8	0.00754	120000

Continued, values first:

ELISA binding to huCYR61 [1]	ELISA binding to huNOV [2]	ELISA binding to huWISP-2 [3]	Kd [4] [nM]	Rat CTGF koff [4] [s⁻¹]	Rat CTGF kon [4] [M⁻¹ s⁻¹]	Molecule
No binding	No binding	No binding	39.3	0.0117	297000	SEQ ID NO: 3: parent CTGF-binding hNGAL lipocalin mutein (protein, lipocalin mutein) QDSTSDLIPAPPLSKVPLQQNFQDNQFHGKWYVVGRAGNNRLREDKDPPKMWATIYELKEDKSYNVTHVHFMTKKCRYIIDTFVPGSQPGEFTLGAIKSGPGMTSPLVRIVSTNYNQHAMVFFKWVNQNREWFTITLYGRTKELTSELKENFIRFSKSLGLPENHIVFPVPIDQCIDG
No binding	No binding	No binding				SEQ ID NO: 74: fusion protein comprising two CTGF-binding lipocalin muteins (protein, fusion protein) QDSTSDLIPAPPLSKVPLQQNFQDNQFQGKWYVVGLAGNAILREDKQPAKMFATIYELKEDKSYDVTSVRFEAKSCKYTIKTFVPGSQPGEFTAGYIKSAPGQTSTLVRVVSTNYNQHAMVFFKHVTQNREIFVITLYGRTKELTSELKENFIRFSKSLGLPENHIVFPVPIDQCIDGGGGGSGGGGSGGGGSQDSTSDLIPAPPLSKVPLQQNFQDNQFQGKWYVVGWAGNVKLREDKQPQKMSATIYELKEDKSYDVTEVVFEQKKCHYIIKTFVPGSQPGEFTAGDIKSPPGYTSSLVRVVSTNYNQHAMVFFKKVSQNREFFWITLYGRTKELTSELKENFIRFSKSLGLPENHIVFPVPIDQCIDG
No binding	No binding	No binding	18	0.00317	176000	SEQ ID NO: 29: parent CTGF-binding hNGAL lipocalin mutein (protein, lipocalin mutein) QDSTSDLIPAPPLSKVPLQQNFQDNQFHGKWYVVGWAGNIKLREDKDPFKMSATIYELKEDKSYNVTEVVFEQKKCHYIIKTFVPGSQPGEFTLGDIKSPPGETSSLVRVVSTNYNQHAMVFFKKVFQNREFFWITLYGRTKELTSELKENFIRFSKSLGLPENHIVFPVPIDQCIDG
